Measurements published in publication doi:10.1101/2022.08.09.503299.

Target: other proteasome components
Assay: SEC

Q: With “PSMA4-BirA*-FLAG (from UniProt P25789 2-261) (natural protein)” as the substance, how does the share of the BirA* signal that co-elutes with proteasome components read?
A: The share of the BirA* signal that co-elutes with proteasome components was 60%.
